Key:
Experiment in all cases: Kinase Profiling Assay
Format in all cases: biochemical
Settings in all cases: 100 μM
[1] = target: CK1γ1(h) (Homo sapiens, UniProt Q9HCP0)
[2] = target: CK1γ3(h) (Homo sapiens, UniProt Q9Y6M4)
[3] = target: CLK2(h) (Homo sapiens, UniProt P49760)
[4] = target: GRK5(h) (Homo sapiens, UniProt P34947)
[5] = target: IGF-1R(h) (Homo sapiens, UniProt P08069)
[6] = target: PAK3(h) (Homo sapiens, UniProt O75914)
[7] = target: PAR-1Bα(h) (Homo sapiens, UniProt Q7KZI7)
[8] = target: Plk1(h) (Homo sapiens, UniProt P53350)
[9] = target: Abl (H396P) (h) (Homo sapiens, UniProt P00519, H396P)
[10] = target: Abl (M351T)(h) (Homo sapiens, UniProt P00519, M351T)
[11] = target: T1, Aurora-A(h) (Homo sapiens, UniProt O14965)
T1 sequence (O14965 1-403): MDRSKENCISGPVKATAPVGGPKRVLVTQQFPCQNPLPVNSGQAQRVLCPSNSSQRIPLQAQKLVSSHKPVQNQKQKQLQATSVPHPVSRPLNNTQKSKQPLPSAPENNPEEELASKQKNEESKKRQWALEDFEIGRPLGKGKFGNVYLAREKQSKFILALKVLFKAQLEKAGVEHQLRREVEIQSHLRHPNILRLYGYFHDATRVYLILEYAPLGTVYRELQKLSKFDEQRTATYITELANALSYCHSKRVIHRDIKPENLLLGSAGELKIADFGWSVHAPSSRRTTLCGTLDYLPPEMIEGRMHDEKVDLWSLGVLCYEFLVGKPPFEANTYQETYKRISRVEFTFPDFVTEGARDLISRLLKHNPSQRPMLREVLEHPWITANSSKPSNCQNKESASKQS

[12] = target: CK1γ2(h) (Homo sapiens, UniProt P78368)
[13] = target: EGFR(T790M)(h) (Homo sapiens, UniProt P00533, T790M)
[14] = target: HIPK3(h) (Homo sapiens, UniProt Q9H422)
[15] = target: cKit(V560G)(h) (Homo sapiens, UniProt P10721, V560G)
[16] = target: MRCKα(h) (Homo sapiens, UniProt Q5VT25)
[17] = target: PAK6(h) (Homo sapiens, UniProt Q9NQU5)
[18] = target: PDGFRα(D842V)(h) (Homo sapiens, UniProt P16234, D842V)
[19] = target: Snk(h) (Homo sapiens, UniProt Q9NYY3)
[20] = target: c-RAF(h) (Homo sapiens, UniProt P04049)

Snk(h), sequence (Q9NYY3 whole entry): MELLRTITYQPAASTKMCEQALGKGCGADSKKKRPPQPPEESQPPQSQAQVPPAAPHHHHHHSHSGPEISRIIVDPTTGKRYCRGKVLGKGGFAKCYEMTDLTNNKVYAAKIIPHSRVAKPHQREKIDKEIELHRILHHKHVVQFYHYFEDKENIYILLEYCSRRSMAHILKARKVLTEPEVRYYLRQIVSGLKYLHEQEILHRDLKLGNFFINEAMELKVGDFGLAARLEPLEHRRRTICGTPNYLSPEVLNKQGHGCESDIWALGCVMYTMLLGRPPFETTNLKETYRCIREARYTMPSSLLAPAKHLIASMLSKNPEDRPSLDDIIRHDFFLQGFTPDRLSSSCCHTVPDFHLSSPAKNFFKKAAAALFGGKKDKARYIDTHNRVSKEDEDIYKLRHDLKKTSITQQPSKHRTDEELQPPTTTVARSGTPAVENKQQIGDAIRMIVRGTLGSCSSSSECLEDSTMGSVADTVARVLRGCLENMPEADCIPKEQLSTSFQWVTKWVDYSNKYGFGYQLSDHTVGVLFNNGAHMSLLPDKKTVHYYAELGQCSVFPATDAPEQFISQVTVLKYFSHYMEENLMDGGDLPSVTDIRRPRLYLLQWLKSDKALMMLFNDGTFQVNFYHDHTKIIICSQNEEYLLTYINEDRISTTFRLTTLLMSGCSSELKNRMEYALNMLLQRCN
CK1γ3(h), sequence (Q9Y6M4 whole entry): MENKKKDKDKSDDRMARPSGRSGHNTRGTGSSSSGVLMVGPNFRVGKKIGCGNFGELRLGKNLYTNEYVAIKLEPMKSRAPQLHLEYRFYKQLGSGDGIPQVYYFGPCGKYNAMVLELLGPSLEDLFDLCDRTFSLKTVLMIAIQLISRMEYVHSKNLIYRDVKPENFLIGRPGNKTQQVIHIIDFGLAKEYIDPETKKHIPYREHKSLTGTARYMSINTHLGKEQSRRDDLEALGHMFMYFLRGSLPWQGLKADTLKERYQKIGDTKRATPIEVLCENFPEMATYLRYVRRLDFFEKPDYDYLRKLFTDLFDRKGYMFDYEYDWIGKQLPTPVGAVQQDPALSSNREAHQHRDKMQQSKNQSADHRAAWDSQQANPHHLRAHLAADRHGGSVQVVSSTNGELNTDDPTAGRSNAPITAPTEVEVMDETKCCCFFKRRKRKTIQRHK
GRK5(h), sequence (P34947 whole entry): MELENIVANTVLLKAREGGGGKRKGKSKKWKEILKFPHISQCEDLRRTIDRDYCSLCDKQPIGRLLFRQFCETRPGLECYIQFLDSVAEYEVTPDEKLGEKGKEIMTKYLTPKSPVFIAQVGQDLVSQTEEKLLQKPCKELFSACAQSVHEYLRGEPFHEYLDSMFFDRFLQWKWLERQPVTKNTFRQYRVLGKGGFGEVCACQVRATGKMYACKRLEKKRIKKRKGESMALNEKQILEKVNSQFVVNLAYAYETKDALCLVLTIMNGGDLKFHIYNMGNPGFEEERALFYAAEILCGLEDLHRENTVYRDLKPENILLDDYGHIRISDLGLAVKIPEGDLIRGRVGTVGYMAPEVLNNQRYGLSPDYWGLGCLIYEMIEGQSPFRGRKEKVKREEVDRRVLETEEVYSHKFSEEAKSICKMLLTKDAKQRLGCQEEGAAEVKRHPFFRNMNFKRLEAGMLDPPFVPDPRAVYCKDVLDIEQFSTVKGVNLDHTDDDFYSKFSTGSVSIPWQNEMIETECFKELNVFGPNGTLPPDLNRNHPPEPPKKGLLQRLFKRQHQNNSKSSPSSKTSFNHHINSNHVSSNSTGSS
HIPK3(h), sequence (Q9H422 whole entry): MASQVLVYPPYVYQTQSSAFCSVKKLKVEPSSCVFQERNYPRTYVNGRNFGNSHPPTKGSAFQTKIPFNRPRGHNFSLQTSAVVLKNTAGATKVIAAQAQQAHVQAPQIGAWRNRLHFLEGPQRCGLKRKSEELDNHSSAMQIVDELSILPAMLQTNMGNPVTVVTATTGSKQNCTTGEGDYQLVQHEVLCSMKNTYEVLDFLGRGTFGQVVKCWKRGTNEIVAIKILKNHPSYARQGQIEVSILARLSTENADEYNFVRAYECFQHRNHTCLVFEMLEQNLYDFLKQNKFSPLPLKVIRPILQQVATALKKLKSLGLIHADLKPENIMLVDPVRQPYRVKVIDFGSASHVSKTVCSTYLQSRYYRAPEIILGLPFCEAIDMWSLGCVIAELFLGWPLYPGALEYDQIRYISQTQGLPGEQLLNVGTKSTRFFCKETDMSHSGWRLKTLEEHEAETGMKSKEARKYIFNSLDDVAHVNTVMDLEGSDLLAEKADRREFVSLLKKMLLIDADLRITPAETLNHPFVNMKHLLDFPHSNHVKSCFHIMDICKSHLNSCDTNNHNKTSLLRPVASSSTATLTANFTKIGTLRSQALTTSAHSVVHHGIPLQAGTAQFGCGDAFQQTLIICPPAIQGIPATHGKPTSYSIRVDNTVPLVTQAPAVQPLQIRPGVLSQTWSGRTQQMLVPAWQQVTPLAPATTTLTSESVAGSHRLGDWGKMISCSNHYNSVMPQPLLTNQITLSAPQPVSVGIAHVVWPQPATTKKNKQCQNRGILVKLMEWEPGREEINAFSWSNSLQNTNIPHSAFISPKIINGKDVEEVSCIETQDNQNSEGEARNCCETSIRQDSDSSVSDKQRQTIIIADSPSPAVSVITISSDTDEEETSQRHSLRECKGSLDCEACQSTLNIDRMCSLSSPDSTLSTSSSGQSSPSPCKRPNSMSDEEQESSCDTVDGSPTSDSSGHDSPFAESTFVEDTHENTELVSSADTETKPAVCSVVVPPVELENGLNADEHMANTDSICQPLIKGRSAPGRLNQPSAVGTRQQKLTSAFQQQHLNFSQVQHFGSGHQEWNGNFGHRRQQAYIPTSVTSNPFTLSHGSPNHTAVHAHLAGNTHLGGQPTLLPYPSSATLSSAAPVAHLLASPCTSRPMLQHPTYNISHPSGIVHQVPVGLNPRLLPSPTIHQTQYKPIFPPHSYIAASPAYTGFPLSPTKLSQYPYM
PDGFRα(D842V)(h), sequence (P16234 24-1089 D842V): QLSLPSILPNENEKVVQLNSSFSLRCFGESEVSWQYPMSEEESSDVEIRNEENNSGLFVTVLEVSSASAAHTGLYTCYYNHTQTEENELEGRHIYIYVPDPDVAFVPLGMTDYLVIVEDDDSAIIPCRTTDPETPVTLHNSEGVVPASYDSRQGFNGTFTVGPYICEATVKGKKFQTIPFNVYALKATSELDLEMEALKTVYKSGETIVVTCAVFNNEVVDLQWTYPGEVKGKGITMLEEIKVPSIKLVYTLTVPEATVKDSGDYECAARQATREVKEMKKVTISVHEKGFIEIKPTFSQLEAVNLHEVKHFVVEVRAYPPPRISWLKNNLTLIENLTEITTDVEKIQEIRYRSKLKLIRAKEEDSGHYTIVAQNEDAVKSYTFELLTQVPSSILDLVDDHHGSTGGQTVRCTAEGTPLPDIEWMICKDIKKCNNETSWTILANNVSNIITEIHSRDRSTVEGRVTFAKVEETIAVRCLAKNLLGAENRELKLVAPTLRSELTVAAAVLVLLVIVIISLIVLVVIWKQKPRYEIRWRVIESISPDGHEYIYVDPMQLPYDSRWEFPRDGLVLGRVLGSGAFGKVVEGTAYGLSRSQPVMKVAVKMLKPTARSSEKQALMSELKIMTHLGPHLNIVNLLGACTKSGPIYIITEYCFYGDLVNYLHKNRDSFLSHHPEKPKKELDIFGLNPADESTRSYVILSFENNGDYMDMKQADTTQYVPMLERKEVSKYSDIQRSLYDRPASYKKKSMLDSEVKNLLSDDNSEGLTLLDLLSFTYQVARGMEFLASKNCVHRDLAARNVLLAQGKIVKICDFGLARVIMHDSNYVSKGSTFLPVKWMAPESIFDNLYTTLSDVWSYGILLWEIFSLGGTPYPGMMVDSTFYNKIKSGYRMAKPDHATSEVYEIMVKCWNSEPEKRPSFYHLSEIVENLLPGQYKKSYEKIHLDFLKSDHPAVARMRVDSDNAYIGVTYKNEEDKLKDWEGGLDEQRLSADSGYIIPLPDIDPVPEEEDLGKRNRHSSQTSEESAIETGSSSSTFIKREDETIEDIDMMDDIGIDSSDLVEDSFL
PAR-1Bα(h), sequence (Q7KZI7 1-725 isoform Q7KZI7-4): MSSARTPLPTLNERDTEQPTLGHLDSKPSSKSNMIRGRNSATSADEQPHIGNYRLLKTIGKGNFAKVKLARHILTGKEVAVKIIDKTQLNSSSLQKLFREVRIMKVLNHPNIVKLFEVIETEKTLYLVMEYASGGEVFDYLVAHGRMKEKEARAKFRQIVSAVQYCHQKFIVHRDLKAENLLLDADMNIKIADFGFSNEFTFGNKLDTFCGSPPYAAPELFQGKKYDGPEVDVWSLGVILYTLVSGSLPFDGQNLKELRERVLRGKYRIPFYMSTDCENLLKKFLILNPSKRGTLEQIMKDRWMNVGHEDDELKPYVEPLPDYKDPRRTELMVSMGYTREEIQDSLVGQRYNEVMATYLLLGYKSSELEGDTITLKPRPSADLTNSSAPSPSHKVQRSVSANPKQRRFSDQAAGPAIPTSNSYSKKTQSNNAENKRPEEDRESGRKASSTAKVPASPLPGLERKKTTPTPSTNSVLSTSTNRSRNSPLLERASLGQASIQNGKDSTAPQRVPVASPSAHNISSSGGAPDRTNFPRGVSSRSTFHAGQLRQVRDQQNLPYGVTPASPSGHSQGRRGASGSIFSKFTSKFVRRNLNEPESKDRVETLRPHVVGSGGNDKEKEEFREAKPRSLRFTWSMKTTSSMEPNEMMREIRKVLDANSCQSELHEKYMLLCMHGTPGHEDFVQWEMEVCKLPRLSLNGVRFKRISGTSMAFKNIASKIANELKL

| Sequence | % activity [1] [%] | % activity [2] [%] | % activity [3] [%] | % activity [4] [%] | % activity [5] [%] | % activity [6] [%] | % activity [7] [%] | % activity [8] [%] | % activity [9] [%] | % activity [10] [%] | % activity [11] [%] | % activity [12] [%] | % activity [13] [%] | % activity [14] [%] | % activity [15] [%] | % activity [16] [%] | % activity [17] [%] | % activity [18] [%] | % activity [19] [%] | % activity [20] [%] |
| --- | --- | --- | --- | --- | --- | --- | --- | --- | --- | --- | --- | --- | --- | --- | --- | --- | --- | --- | --- | --- |
| YARAAARQARAKALNRQLGVA [MMI-0200] | 98 | 96 | 97 | 135 | 49 | 50 | 110 | 128 |  |  |  |  |  |  |  |  |  |  |  |  |
| FAKLAARLYRKALARQLGVAA [MMI-0300] |  | 125 |  |  |  | 140 |  |  | 101 | 90 | 92 | 123 | 100 | 93 |  |  |  |  |  |  |
| KAFAKLAARLYRKALARQLGVAA [MMI-0400] |  |  |  | 131 | 90 |  |  |  |  |  |  |  |  |  | 124 | 97 | 100 | 118 | 131 |  |
| HRRIKAWLKKIKALARQLGVAA [MMI-0500] |  |  |  |  |  |  | 97 |  | 51 | 61 | 110 |  | 70 | 85 | 198 | 5 |  | 170 | 122 | 19 |
